Tests used:
[1] = Serum hydrolysis of hK2 substrates; format: in vitro ADME; conditions: 50% fresh human serum in 50 mM Tris, 0.1 M NaCl, pH 7.8
Method: (§1) Hydrolyses of particular hK2 substrates were carried out at a hK2 concentrations of 1 μg/ml in 50 mM Tris buffer, with 0.1 M NaCl, at pH 7.8. Serum hydrolysis measurements were carried out in 50% fresh human serum in 50 mM Tris buffer, with 0.1 M NaCl, at pH 7.8. The single letter amino acid code was used to designate the peptide sequences used for Table 4. The units FU are arbitrary fluorescence units. The entries “U.D.” were for measurements of less than 0.01 FU/hour.

hK2 = molecular target: T1, hK2 (Homo sapiens, UniProt P20151); assay: Hydrolysis of hK2 substrates by hK2; format: biochemical; conditions: hK2 1 μg/ml, 50 mM Tris, 0.1 M NaCl, pH 7.8
T1 construct: made in house
T1 sequence (P20151 25-261): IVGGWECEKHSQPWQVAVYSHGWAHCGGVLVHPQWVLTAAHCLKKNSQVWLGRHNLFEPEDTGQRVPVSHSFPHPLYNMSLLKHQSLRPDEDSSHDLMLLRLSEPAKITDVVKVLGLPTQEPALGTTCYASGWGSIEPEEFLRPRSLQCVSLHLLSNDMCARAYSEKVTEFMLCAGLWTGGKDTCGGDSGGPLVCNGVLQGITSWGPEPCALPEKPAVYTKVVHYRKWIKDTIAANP
Method: as §1

Substance | Serum Hydrolysis Rate ([1]; Table 4) | hK2 Hydrolysis Rate (hK2; Table 4) | Serum Hydrolysis Rate ([1]; Table 5) | hK2 Hydrolysis Rate (hK2; Table 5)
SEQ ID NO: 82: hK2 substrate peptide, single letter sequence P7-P′1 (GSQNQVRL; listed as Homo sapiens) | 0.03 FU/hr | 193.55 FU/hr/m | – | –
SEQ ID NO: 83: hK2 substrate peptide, single letter sequence P7-P′1 (GPLILSRL; listed as Homo sapiens) | 0.07 FU/hr | 118.21 FU/hr/m | – | –
SEQ ID NO: 84: hK2 substrate peptide, single letter sequence P7-P′1 (GSYEERHL; listed as Homo sapiens) | 0.09 FU/hr | 42.87 FU/hr/m | – | –
SEQ ID NO: 85: hK2 substrate peptide, single letter sequence P7-P′1 (GKDVSGHL; listed as Homo sapiens) | 0.05 FU/hr | 67.55 FU/hr/m | – | –
SEQ ID NO: 86: hK2 substrate peptide, single letter sequence P7-P′1 (GGGKAHHL; listed as Homo sapiens) | 0.05 FU/hr | 70.15 FU/hr/m | – | –
SEQ ID NO: 87: hK2 substrate peptide, single letter sequence P7-P′1 (GSNTEKHL; listed as Homo sapiens) | 0.03 FU/hr | 80.54 FU/hr/m | – | –
SEQ ID NO: 88: hK2 substrate peptide, single letter sequence P7-P′1 (GPAHQDRL; listed as Homo sapiens) | 0.06 FU/hr | 75.34 FU/hr/m | – | –
SEQ ID NO: 89: hK2 substrate peptide, single letter sequence P7-P′1 (GHEQKGHL; listed as Homo sapiens) | UD (The entries “U.D.” were for measurements of less than 0.01 FU/hour) | 1.30 FU/hr/m | – | –
SEQ ID NO: 90: hK2 substrate peptide, single letter sequence P7-P′1 (GPAHQDHL; listed as Homo sapiens) | 0.00 FU/hr | 48.06 FU/hr/m | – | –
SEQ ID NO: 91: hK2 substrate peptide, single letter sequence P7-P′1 (GSYPSSHL; listed as Homo sapiens) | UD (The entries “U.D.” were for measurements of less than 0.01 FU/hour) | 24.68 FU/hr/m | – | –
SEQ ID NO: 92: hK2 substrate peptide, single letter sequence P7-P′1 (GSQNQVHL; listed as Homo sapiens) | 0.03 FU/hr | 32.48 FU/hr/m | – | –
SEQ ID NO: 93: hK2 substrate peptide, single letter sequence P7-P′1 (GHAQKRRL; listed as Homo sapiens) | – | – | 0.08 FU/hr | 3665.1 FU/hr/m
SEQ ID NO: 94: hK2 substrate peptide, single letter sequence P6-P′1 (GGKSRRL; listed as Homo sapiens) | – | – | 0.03 FU/hr | 3439.7 FU/hr/m
SEQ ID NO: 95: hK2 substrate peptide, single letter sequence P7-P′1 (GHEAKRRL; listed as Homo sapiens) | – | – | UD (The entries “U.D.” were for measurements of less than 0.01 FU/hour) | 3324.1 FU/hr/m
SEQ ID NO: 96: hK2 substrate peptide, single letter sequence P6-P′1 (GGQKRRL; listed as Homo sapiens) | – | – | 0.02 FU/hr | 3267.4 FU/hr/m
SEQ ID NO: 97: hK2 substrate peptide, single letter sequence P7-P′1 (GHEQKRRA; listed as Homo sapiens) | – | – | 0.06 FU/hr | 3051.5 FU/hr/m
